# Substitutions are numbered along the chain they refer to.
# T1: extracellular domain (ECD) of human IGSF11 (VSIG3), recombinant (human, UniProt Q5DX21 23-241)
# T1 construct: biotinylated where captured on streptavidin; tags of the reagent not always stated; also called IGSF11 (ECD domain); ECD-IGSF11
# T1 sequence: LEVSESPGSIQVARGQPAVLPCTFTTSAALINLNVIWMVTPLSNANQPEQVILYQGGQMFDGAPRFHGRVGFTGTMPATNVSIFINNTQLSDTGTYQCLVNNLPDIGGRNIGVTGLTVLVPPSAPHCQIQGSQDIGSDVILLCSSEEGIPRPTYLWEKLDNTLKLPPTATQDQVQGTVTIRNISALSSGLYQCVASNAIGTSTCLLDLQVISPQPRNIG
# T2: ECD of murine IGSF11, recombinant biotinylated (mouse, UniProt P0C673 23-240)
# T2 construct: whole entry named; also called Mouse IGSF11
# T2 sequence: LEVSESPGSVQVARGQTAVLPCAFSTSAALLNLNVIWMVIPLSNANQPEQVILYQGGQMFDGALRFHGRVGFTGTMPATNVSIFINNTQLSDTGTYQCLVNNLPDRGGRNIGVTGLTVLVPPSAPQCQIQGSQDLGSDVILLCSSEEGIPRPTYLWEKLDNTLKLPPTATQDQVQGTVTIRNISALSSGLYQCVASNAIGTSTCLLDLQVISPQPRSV
# T3: ECD of cynomolgus monkey IGSF11, recombinant biotinylated (cynomolgus monkey, UniProt Q5DX21 23-241 (human entry))
# T3 construct: whole entry named
# T3 chain: T1 sequence with P17T, I83V, A185T, S187T
# T4: human IGSF11 (VSIG3) expressed on cells (human, UniProt Q5DX21 23-431)
# T4 sequence: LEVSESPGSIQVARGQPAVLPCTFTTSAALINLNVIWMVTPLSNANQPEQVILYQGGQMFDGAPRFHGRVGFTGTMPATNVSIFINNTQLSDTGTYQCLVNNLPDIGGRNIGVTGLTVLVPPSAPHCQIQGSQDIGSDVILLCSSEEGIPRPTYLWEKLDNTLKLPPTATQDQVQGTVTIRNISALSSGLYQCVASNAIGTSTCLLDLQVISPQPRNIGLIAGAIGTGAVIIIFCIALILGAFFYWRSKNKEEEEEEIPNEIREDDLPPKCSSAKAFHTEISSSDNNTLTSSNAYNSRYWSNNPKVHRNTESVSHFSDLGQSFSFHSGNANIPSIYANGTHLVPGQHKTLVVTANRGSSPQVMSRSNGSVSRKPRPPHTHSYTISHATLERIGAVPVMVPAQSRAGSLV
# T5: human IGSF11 (VSIG3) ECD, His-tagged (human, UniProt Q5DX21 23-241)
# T5 construct: in part bought (SinoBiological 13094-H08H); also called HIS-IGSF11; IGSF11-HIS; not shown: His tag
# T5 sequence: T1 sequence
# B1: A-011 (scFv format) (scFv, V domains shown)
# VH: QVQLVESGGGVVQPGRSLRLSCAASGFTFSSYAMHWVRQAPGKGLEWVAVISYDGSNKYYADSVKGRFTISRDNSKNTLYLQMNSLRAEDTAVYYCAEGGALNYYGMDVWGQGTTVTVSS
# VL: SSELTQDPGVSVALGQTVRITCQGDSLRHFYATWYQQKPGQAPILVIYGKNNRPSGIPDRFSGSSSEDTASLTITGAQAEDEADYYCQSRDPRNNHLIFGGGTKLIVL
# notes: scFv
# B2: A-004 (scFv format) (scFv, V domains shown)
# VH: EVQLVESGGGLVKPGGSLRLSCAASGFTFSSYSMNWVRQAPGKGLEWVSSISSSSSYIYYADSVKGRFTISRDNAKNSLYLQMNSLRAEDTAVYYCARGQLLWFGESALIDAFDIWGQGTMVTVSS
# VL: EIVLTQSPSSLSASVGDRVTITCRASQSISSYLNWYQLKPGKAPKLLIYAASILQSGVPSRFSGSGSGTDFTLTISSLQPEDFAAYYCQQSYSTPRTFGQGTKLEIK
# notes: scFv
# B3: A-022 (scFv format) (scFv, V domains shown)
# VH: EVQLLESGPGLVKPSQTLSLTCTVSGGSISSGGYYWSWIRQHPGKGLEWIGYIYYSGSTYYNPSLKSRVTISVDTSKNQFSLKLSSVTAADTAVYYCARASRSTDYYFDYWGQGTLVTVSS
# VL: QPGLTQPPSMSYGLGQTATLTCTGNRNNIGDQGAAWLQQHQGHPPKLLSYRNNNGPSGISERLSASRSGNTASLTISGLQPEDEADYYCSAWDSSLRAWVFGGGTKLTVL
# notes: scFv
# B4: C-010 (Fab format) (Fab, V domains shown)
# VH: QVQLVQSGAEVKKPGSSVKVSCKASGGTFSSYAISWVRQAPGQGLEWMGGIIPIFGTANYAQKFQGRVTITADESTSTAYMELSSLRSEDTAVYYCARGYGEYYPAFDVWGQGTLVTVSS
# VL: SYELTQPPSVSVSPGQTASITCSGDKLGDKYASWYQQKPGQSPVLVIYQDSKRPSGIPERFSGSNSGNTATLTISGTQAEDEADYYCASYAHTHSTWVFGGGTKLTVL
# notes: Fab from E. coli lysate
# B5: A-013 (IgG1 format) (antibody, V domains shown)
# VH: EVQLVESGGGLIQPGGSLRLSCAASGFTVSSNYMSWVRQAPGKGLEWVSVIYSGGSTYYADSVKGRFTISRDNSKNTLYLQMNSLRAEDTAVYYCARGNPYYYGDLQVNFDYWGQGTLVTVSS
# VL: QAVVTQEPSLTVSPGGTVTLTCASSTGAVTSAYYPNWFQQKPGQAPRALIYSTSNKHSWTPARFSGSLLGGKAALTLSGVQPEDEADYYCLLYYGGAWVFGGGTKLTVL
# notes: human IgG1 format
# B6: A-034 (scFv format) (scFv, V domains shown)
# VH: QMQLVQSGGGLVKPGGSLRLSCAASGFTFSSYTMNWVRQAPGKGLEWVSSISSIGTYIYYADSVKGRFTISRDNAKNSLYLQMNSLRAEDTAVYYCARVLLSGSYYGYFDSWGQGTLVTVSS
# VL: QSVLTQPPSVSGAPGQRVTISCTGSSSNIGAGYDVHWYQQLPGTAPKLFIYGNSNRPSGVPDRFSGSKSGTSASLAITGLQAEDEADYYCQSYDSSLSGYVFGTGTKVTVL
# notes: scFv
# B7: A-035 (scFv format) (scFv, V domains shown)
# VH: QVQLVQSGAEVKKPGASVKVSCKASGYTFTGYYMHWVRQAPGQGLEWMGWINPNSGNTGYAQKFQGRVTMTRNTSISTAYMELSSLRSEDTAVYYCARGRLERGYWYFDLWGRGTLVTVSS
# VL: NFMLTQPHSVSESPGRTVTISCTRSSGSITSNYVQWYQQRPGSAPTILIYEDKERPSEVPDRFSGSIDISSNSASLTISGLKTEDEADYYCQSYGGTSQGVLFGGGTKVTVL
# notes: scFv
# B8: A-007 (IgG1 format) (antibody, V domains shown)
# VH: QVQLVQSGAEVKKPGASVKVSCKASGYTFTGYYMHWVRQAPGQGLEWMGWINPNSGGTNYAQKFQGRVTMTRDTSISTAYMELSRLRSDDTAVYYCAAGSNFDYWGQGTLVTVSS
# VL: QSALTQPASVSGSPGQSITIACTGSSSDIGSFSYVSWYQQRPGKAPTLIIYGVNNRPLGVSRRFSGSKSGNTASLSISGLQAEDEADYYCSSYTRRSTVIFGGGTKLTVL
# notes: human IgG1 format
# B9: A-001 (scFv format) (scFv, V domains shown)
# VH: EVQLVESGGGLVKPGGSLRLSCAASGFTFSSYSMNWVRQAPGKGLEWVSSISSSSSYIYYADSVKGRFTISRDNAKNSLYLQMNSLRAEDTAVYYCVRSIIVQALGITSVFDIWGQGTMVTVSS
# VL: AIRLTQSPSSLSASVGDRVTISCRASQIISNHLNWYQQKPGKAPKLLIYAASRLQTGVPSRFSGSGSETDYTLTISSLQPEDFATYYCQQSYSNPRTFGHGTKVEIK
# notes: scFv
# B10: A-016 (scFv format) (scFv, V domains shown)
# VH: QVQLQESGAEVKKPGASVKVSCKASGYTFTGYYMHWVRQAPGQGLEWMGGIIPIFGTANYAQKFQGRVTITADESTSTAYMELSSLRSEDTAVYYCAGAGMELTRSGAYYYYGMDVWGQGTTVTVSS
# VL: QSALTQPASVSGSPGQSITISCTGTSSDIGGYTFVSWYQQHPGKAPKVMIHDVNNRPSGISNRFSGSKSGNTASLTISGLQAEDEADYYCSSVTSTNTYVFGTGTKVTVL
# notes: scFv
# B11: A-019 (scFv format) (scFv, V domains shown)
# VH: QVQLVQSGAEVKKPGASVKVSCKASGYTFTGYYMHWVRQAPGQGLEWMGWINPNSGNTGYAQKFQGRVTMTRNTSISTAYMELSSLRSEDTAVYYCARGGQQQLVLDDYWGQGTLVTVSS
# VL: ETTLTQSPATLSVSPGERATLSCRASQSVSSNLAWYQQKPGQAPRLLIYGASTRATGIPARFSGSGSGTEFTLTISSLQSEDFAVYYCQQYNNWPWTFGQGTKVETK
# notes: scFv
# B12: C-006 (Fab format) (Fab, V domains shown)
# VH: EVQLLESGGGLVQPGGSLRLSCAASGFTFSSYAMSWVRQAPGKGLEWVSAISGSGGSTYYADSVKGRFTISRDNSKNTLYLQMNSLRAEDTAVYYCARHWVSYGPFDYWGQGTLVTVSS
# VL: DIQMTQSPSSLSASVGDRVTITCRASQSISSYLNWYQQKPGKAPKLLIYAASSLQSGVPSRFSGSGSGTDFTLTISSLQPEDFATYYCQQSHQSPPITFGQGTKVEIK
# notes: Fab from E. coli lysate
# B13: C-012 (Fab format) (Fab, V domains shown)
# VH: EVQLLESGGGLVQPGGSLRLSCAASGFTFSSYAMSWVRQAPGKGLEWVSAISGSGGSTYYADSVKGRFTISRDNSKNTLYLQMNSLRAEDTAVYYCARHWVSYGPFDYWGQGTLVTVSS
# VL: B12 VL
# notes: Fab from E. coli lysate
# What was measured:
# [1] = biological target: T1, extracellular domain (ECD) of human …; test: ELISA RFU 0.1-0.5
# [2] = biological target: T2, ECD of murine IGSF11, recombinant …; test: ELISA RFU>1.0
# [3] = biological target: T1, extracellular domain (ECD) of human …; test: ELISA RFU 0.5-1.0
# [4] = biological target: T2, ECD of murine IGSF11, recombinant …; test: Fab ELISA
# Description: (§1) In order to identify IGSF11-specific binding ABPs, monoclonal Fabs expressed from E. coli were generated from the enriched set of anti-IGFS11 antibody-expressing phage. After bacterial lysis, the Fabs were tested for their binding properties and cross-reactivity profile on recombinant ECD-IGSF11 (human, mouse and cynomolgus monkey) by standard ELISA. Briefly, biotinylated recombinant ECD-IGSF11 from human, mouse, or cynomolgus monkey were immobilized at 2 ug/mL on a streptavidin-coated 384-well Maxisorp plate. The surface was blocked with 2% (w/v) skim milk powder in PBST. After three wash cycles with PBST, a bacterial lysate of each of the anti-IGSF11 Fabs in 2% (w/v) skim milk powder was applied to the immobilized IGSF11 and incubated for 1 h. After removing all unbound Fab by 3 wash cycles with PBST, bound Fab antibodies were detected with a goat anti-human Fab antibody conjugated with horseradish peroxidase. After three wash cycles with PBST the ELISA was developed with TMB substrate.
# [5] = biological target: T3, ECD of cynomolgus monkey IGSF11, …; test: Fab ELISA
# Description: as §1
# [6] = biological target: Streptavidin (UniProt P22629 37-163, limits assumed); test: Fab ELISA
# Chain of Streptavidin (P22629 37-163 limits assumed): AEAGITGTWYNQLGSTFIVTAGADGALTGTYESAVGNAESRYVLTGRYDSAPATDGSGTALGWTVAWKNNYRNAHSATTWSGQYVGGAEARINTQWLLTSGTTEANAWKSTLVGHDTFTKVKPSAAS
# Description: as §1
# [7] = biological target: T4, human IGSF11 (VSIG3) expressed on cells; test: IgG1 FACS DMS 273
# [8] = biological target: T5, human IGSF11 (VSIG3) ECD, His-tagged; test: IgG1 ELISA EC50 <0.02 nM
# [9] = biological target: T4, human IGSF11 (VSIG3) expressed on cells; test: IgG1 FACS HEK-OE
# [10] = biological target: T1, extracellular domain (ECD) of human …; test: SPR
# [11] = biological target: T1, extracellular domain (ECD) of human …; test: ELISA RFU>1.0
# [12] = biological target: T2, ECD of murine IGSF11, recombinant …; test: ELISA RFU 0.5-1.0
# [13] = biological target: T4, human IGSF11 (VSIG3) expressed on cells; test: FACS, M579-A2-luc cells with scrambled control siRNA (SC)
# [14] = biological target: T4, human IGSF11 (VSIG3) expressed on cells; test: FACS, DMS 273 cells with scrambled control siRNA (SC)
# [15] = biological target: T4, human IGSF11 (VSIG3) expressed on cells; test: FACS, M579-A2-luc cells with IGSF11 siRNA (KD, knock-down control)
# [16] = biological target: T4, human IGSF11 (VSIG3) expressed on cells; test: FACS, DMS 273 cells with IGSF11 siRNA (KD, knock-down control)
binder,measurement,setting,value
B1,ELISA binding signal (RFU),[1],0.1 to 0.5 rfu
same,ELISA binding signal (RFU),[2],> 1 rfu
B2,ELISA binding signal (RFU),[2],> 1 rfu
same,ELISA binding signal (RFU),[3],0.5 to 1 rfu
B3,ELISA binding signal (RFU),[2],> 1 rfu
same,ELISA binding signal (RFU),[3],0.5 to 1 rfu
B4,A450,[4],< 1
same,A450,[5],< 1
same,A450,[6],< 0.1
B5,EC50,[7],> 50 nM
same,EC50,[8],< 0.02 nM
same,EC50,[9],10 to 50 nM
same,Kd,[10],100 to 250 nM
B6,ELISA binding signal (RFU),[11],> 1 rfu
same,ELISA binding signal (RFU),[12],0.5 to 1 rfu
B7,ELISA binding signal (RFU),[2],> 1 rfu
same,ELISA binding signal (RFU),[3],0.5 to 1 rfu
B8,EC50,[7],< 10 nM
same,EC50,[8],< 0.02 nM
same,% binding (FACS heat-map),[13],65.6%
same,% binding (FACS heat-map),[14],82.3%
same,EC50,[9],< 10 nM
same,% binding (FACS heat-map),[15],9.15%
same,% binding (FACS heat-map),[16],34.2%
B9,ELISA binding signal (RFU),[2],> 1 rfu
same,ELISA binding signal (RFU),[11],> 1 rfu
B10,ELISA binding signal (RFU),[11],> 1 rfu
same,ELISA binding signal (RFU),[12],0.5 to 1 rfu
B11,ELISA binding signal (RFU),[11],> 1 rfu
same,ELISA binding signal (RFU),[12],0.5 to 1 rfu
B12,A450,[5],< 1
B13,A450,[5],< 1

# — patent US20220372138A1 (IOMX THERAPEUTICS, published 2022)
